For four molecules, % HGF binding inhibition and % binding compared to 5D5 results are on record in patent US20180327500A1.

In experiment [1] the target is human MET Fc fusion protein (R&D Systems) (human) (UniProt P08581). Briefly: BLI; MET-Fc saturated with antibody at 80 ug/ml (533 nM), then HGF as competitor at 20 ug/ml. (In general: Biolayer interferometry detects binding as a change in optical thickness at a sensor tip.)
For experiment [2], the target named is human MET ECD construct with H209 mutated to mouse sequence, on HEK293 cells (human) (UniProt P08581). Briefly: flow cytometry on transfected HEK293 cells, normalised to 5D5 binding at 3 ug/ml. On the technique in general: In flow cytometry, cells or beads pass a laser one at a time.
In experiment [3] the target is human MET ECD construct with AA 129-143 exchanged to mouse sequence, on HEK293 cells (human). The description is as above.

B1: 28-MET antibody analog (antibody, from another filing, IgG1, V domains shown)
VH: QVQLQESGPGLVKPGETLSLTCTVSGGSISGYYWSWIRQAPGKGLEWIGEIYYAGSTLYNPSLKGRVTISVDTSKNQFSLKLSSVTAEDTAVYYCARHYGLDWFGDTGMDVWGQGTLVTVSS
VL: DIELTQPPSVSVAPGQSITISCSGDNLGDKYVHWYQQKPGQAPVLVIYDDNERPSGIPERFSGSNSGNTATLTISGTQAEDEADYYCSAYGSHSGTVFGGGTKLTVLG
Turning to B1, the % HGF binding inhibition in experiment [1] amounted to 50%.

B2: 36C4 antibody analog (antibody, from another filing, IgG1, V domains shown)
VH: QVQLVESGPGLVKPSQTLSLTCAVSGGSITTNYYYWSWIRQSPGKGLEWMGVIAYDGSTDYSPSLKSRTSISRDTSKNQFSLQLSSVTPEDTAVYYCARDVRVIATGWATANALDAWGQGTLVTVSS
VL: QSVLTQPPSVSGSPGKTVTISCAGTSSDVGYGNYVSWYQQLPGTAPKLLIFAVSYRASGIPDRFSGSKSGNTAFLTISGLQSEDEADYYCASYRSSNNAAVFGGGTHLTVL
Consider B2, for which the % binding compared to 5D5 in experiment [2] stood at 43%; in experiment [3] it was 58%. Also, the % HGF binding inhibition in experiment [1] was found to be 74%.

B3: 13-MET antibody analog (antibody, from another filing, IgG1, V domains shown)
VH: QVQLKESGPALVKPTQTLTLTCTFSGFSLSTSGMVVSWIRQPPGKALEWLAFISWDDDKYYSTSLKTRLTISKDTSKNQVVLTMTNMDPVDTATYYCAREPGRYGGYYFDYWGQGTLVTVSS
VL: DIQMTQSPSSLSASVGDRVTITCRASQTISHYLAWYQQKPGKAPKLLIYAASILQSGVPSRFSGSGSGTDFTLTISSLQPEDFAVYYCQQYSGFPVTFGQGTKVEIKR
For B3, the % HGF binding inhibition in experiment [1] was 81%.

B4: 223C4 antibody analog (antibody, from another filing, IgG1, V domains shown)
VH: EVLLQQSGPELVKPGASVKIPCKASGYTFTDYNMDWVKQSHGMSLEWIGDINPNNGGTIFNQKFKGKATLTVDKSSSTAYMELRSLTSEDTAVYYCARGRYVGYYYAMDYWGQGTSVTVSS
VL: DIQMTQSPASLSVSVGETVTITCRASENIYSNLAWYQQKQGKSPQLLVYAATNLVDGVPSRFSGSGSGTQYSLKINSLQSEDFGSYYCQHFWGPPYTFGGGTKLEIK
In turn, B4 showed a % HGF binding inhibition in experiment [1] of 69%.
